Assay results from patent publication US20160096874A1, “MRG RECEPTOR MODULATORS” (BAYER PHARMA AKTIENGESELLSCHAFT, priority 2013, published 2016).
“Also recorded” adds a separate entry of the source. Peptide text beside a SMILES is read from it.

T1: human MrgX2 (Homo sapiens, UniProt Q96LB1)
T1 construct: The used cell line is overexpressing MrgX2 in CHEM1 by recombinant expression; host or cells: CHEM1 (adherent rat cell line)
T1 sequence (Q96LB1 1-330): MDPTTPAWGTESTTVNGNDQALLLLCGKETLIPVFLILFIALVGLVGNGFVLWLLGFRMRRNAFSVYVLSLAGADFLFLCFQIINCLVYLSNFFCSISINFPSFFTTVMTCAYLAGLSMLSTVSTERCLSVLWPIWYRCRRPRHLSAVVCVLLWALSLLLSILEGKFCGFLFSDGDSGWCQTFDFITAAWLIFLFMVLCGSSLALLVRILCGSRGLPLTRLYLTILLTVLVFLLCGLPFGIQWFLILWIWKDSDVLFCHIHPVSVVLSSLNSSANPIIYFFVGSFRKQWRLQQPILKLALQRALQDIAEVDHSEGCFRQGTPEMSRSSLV

B1: Chemokine (C-X-C motif) ligand 14 (protein, listed as Homo sapiens)
chain: SKCKCSRKGPKIRYSDVKKLEMKPKYPHCEEKMVIITTKSVSRYRGQEHCLHPKLQSTKRFIKWYNAWNEKRRVYEE
notes: small cytokine belonging to the CXC chemokine family
B2: Mouse CXCL14: mouse CXCL14, amino acid sequence in FIG. 19; differs from human by two amino acid residues (protein)
chain: SKCKCSRKGPKIRYSDVKKLEMKPKYPHCEEKMVIVTTKSMSRYRGQEHCLHPKLQSTKRFIKWYNAWNEKRRVYEE

Key:
human MrgX2 (human) = human MrgX2 (human) (UniProt Q96LB1); experiment: cell-based or functional assay
human MrgX2 = target: T1, human MrgX2; experiment: Fluo8 assay, intracellular Calcium release in CHEM1-MrgX2 cells; format: cell-based
Method: (§1) The Fluo8 assay is a cell based assay format for the determination of intracellular Calcium release. Cell were seeded on microtiter plates and incubated under standard cell culture conditions. After 24 h the medium was removed and the cells were washed with PBS. The cells were incubated with loading buffer (40 ml PBS with 2 mM Calcium +800 μl brilliant black (2%) +732 μl pobenecid (0.5 M) in 1N NaOH +400 μl Pluronic (10%) in water +152 μl Fluo8 (5.7 μg/ml) in water) for 30 minutes.

CHEM1 cells = experiment: Fluo8 assay, Calcium release in CHEM1 (control) cells without MrgX2 overexpression; format: cell-based, rat; conditions: control cell line, same experimental conditions, result in words
Method: as §1, with “minutes. For fluorescence readout and compound testing a FLIPR tetra system was used according to the manufactures protocol (Molecular Devices, Calif. 94089-1136, USA).” for “minutes.”
The used cell lines CHEM1 and CHEM1-MrgX2 are adherent rat cell lines (Millipore, Billerica, Mass. 01821, USA) with were cultures under standard cell culture conditions.

CXCR4 = target: T2, CXCR4 (Homo sapiens, UniProt P61073); experiment: CXCR4 activity assay (CRE-luciferase reporter); format: cell-based; conditions: result in words
T2 construct: expressed in transfected cells
T2 sequence (P61073 whole entry, species assumed): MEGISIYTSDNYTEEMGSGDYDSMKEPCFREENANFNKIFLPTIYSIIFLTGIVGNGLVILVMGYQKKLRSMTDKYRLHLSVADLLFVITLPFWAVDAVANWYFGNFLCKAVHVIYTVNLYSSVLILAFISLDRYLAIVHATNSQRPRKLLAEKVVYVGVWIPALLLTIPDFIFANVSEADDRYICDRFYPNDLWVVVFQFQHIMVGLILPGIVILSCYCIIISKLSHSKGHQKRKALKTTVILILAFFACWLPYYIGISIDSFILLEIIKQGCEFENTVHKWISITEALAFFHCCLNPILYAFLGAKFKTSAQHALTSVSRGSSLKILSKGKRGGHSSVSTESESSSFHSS
Source text: The CXCR4 receptor is a chemokine receptor and belongs to the family of G protein coupled receptors (GPCRs). Its only known endogenous ligand is stromal cell-derived factor 1 (SDF-1a). CXCR4 is a Gi coupled receptor. Its activation leads to a decrease of intracellular cAMP, which could be monitored by recombinant cAMP-responsive element (CRE) regulated luciferase expression. For the characterization of modulators of CXCR4 activity, stable cell lines expressing recombinant CXCR4 and a CRE-luciferase reporter vector were established. The cells were incubated with forskolin at a concentration of 0.5 μM, SDF-1a (at 20 nM) and test compounds and incubated for 4 h under standard cell culture conditions. Luciferase substrate was added and the luminescence was measured for 60 seconds.

Molecule	Calcium release / activity on MrgX2 (CHEM1-MrgX2) (human MrgX2; Fluo8 assay, result in words)	Calcium release on CHEM1 without MrgX2 (CHEM1 cells)	also measured
human CXCL14 (from UniProt O95715 35-111) (ligand)			EC50 of intracellular calcium release (Fluo8 assay) on CHEM1-MrgX2 cells (human MrgX2 (human)): 570 nM
NPY: peptide analyzed to characterize the specificity of CXCL14 to MrgX2 activation [reference compound]	Neither NPY or angiotension II nor galanin show a dose dependent Calcium release	Neither NPY or angiotension II nor galanin show a dose dependent Calcium release	
angiotensin II (DRVYIHPF) [reference compound]	Neither NPY or angiotension II nor galanin show a dose dependent Calcium release	Neither NPY or angiotension II nor galanin show a dose dependent Calcium release	
PAMP (from UniProt P35318 22-185) (peptide)			EC50 of calcium release (Fluo8 assay) on CHEM1-MrgX2 cells (human MrgX2 (human)): 490 nM
CC(C)C[C@H](NC(=O)[C@H](C)NC(=O)[C@H](Cc1c[nH]c2ccccc12)NC(=O)[C@H](CCCCN)NC(=O)[C@H](CC(N)=O)NC(=O)[C@H](Cc1c[nH]c2ccccc12)NC(=O)[C@H](CCCCN)NC(=O)[C@H](CCCCN)NC(=O)[C@H](CCCNC(=N)N)NC(=O)[C@H](Cc1ccccc1)NC(=O)[C@H](CCC(=O)O)NC(=O)[C@H](CO)NC(=O)[C@H](C)NC(=O)[C@@H](NC(=O)[C@H](CC(=O)O)NC(=O)[C@H](CC(C)C)NC(=O)[C@H](CCCNC(=N)N)NC(=O)[C@H](C)N)C(C)C)C(=O)N[C@@H](CO)C(=O)N[C@@H](CCCNC(=N)N)C(N)=O [PAMP, reference compound] (H-ARLDVASEFRKKWNKWALSR-NH2)	dose dependent Calcium release	not in CHEM1	
B1	activated by CXCL14 in a dose dependent matter; also recorded: specific agonist	no significant calcium release	EC50 (human MrgX2; Calcium release, Fluo8 assay, CHEM1 overexpressing MrgX2): 570 nM; activity on G-protein coupled receptor CXCR4 (CXCR4): antagonist
B2	dose dependent Calcium release	not on CHEM1 without MrgX2	EC50 on CHEM1-MrgX2 compared with human CXCL14 (human MrgX2; Calcium release, result in words): comparable EC50
